From PMC6656757, “Structural insights into E1 recognition and the ubiquitin-conjugating activity of the E2 enzyme Cdc34” (Nature Communications, 2019)

Assays:
[1] = molecular target: T1, S. pombe Uba1 (S. pombe) (UniProt O94609)
T1 sequence: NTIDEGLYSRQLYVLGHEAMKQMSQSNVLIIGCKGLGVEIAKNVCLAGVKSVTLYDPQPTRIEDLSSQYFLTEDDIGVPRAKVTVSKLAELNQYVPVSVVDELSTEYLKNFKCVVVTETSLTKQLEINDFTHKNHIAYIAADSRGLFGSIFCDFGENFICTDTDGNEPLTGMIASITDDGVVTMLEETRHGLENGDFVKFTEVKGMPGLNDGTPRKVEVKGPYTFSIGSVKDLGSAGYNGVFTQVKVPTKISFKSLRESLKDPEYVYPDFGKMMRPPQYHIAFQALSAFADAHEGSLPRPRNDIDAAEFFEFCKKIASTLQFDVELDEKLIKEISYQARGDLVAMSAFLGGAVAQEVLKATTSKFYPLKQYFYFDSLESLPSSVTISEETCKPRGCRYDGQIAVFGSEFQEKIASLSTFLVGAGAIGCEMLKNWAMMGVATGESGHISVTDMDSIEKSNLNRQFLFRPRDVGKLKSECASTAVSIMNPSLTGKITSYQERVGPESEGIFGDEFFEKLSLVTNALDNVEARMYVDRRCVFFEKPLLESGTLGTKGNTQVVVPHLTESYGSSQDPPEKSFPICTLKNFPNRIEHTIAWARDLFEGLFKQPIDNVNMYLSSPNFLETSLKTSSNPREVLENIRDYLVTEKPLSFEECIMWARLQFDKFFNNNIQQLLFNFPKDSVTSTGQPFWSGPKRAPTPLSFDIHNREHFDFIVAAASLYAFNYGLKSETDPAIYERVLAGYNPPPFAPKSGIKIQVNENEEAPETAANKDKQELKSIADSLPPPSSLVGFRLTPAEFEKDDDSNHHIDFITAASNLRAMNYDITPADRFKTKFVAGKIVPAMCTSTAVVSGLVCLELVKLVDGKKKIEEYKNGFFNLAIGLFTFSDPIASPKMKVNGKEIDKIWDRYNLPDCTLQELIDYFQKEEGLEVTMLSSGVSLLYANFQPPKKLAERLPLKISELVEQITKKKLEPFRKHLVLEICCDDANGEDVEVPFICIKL

[2] = molecular target: T2, S. cerevisiae Uba1 (a.a. 11–1024) (S. cerevisiae, UniProt P22515 11-1024, in the crystal: disulfide bond between the Uba1 and Cdc34 catalytic cysteines (cross-link)); assay: crystal structure; S. cerevisiae Uba1-Cdc34^Δdist held by a disulfide bond between the catalytic cysteines, mixed with Ub, 1 mM ATP and 5 mM MgCl2; crystals at 18 °C in 0.2 M ammonium sulfate, 25% PEG 3,350, 0.1 M Bis-Tris pH 6.5; 2.07 Å; two copies in the asymmetric unit; settings: both partners purified
T2 construct: residues 11-773 and 797-1024 built in the model; Cross-linked to Cdc34 only for the crystal; not cross-linked in the thioester transfer assays; also called ScUba1; E1; source: E. coli BL21 (DE3) Codon Plus, purified (Ni-NTA, gel filtration, MonoQ)
T2 sequence (P22515 11-1024): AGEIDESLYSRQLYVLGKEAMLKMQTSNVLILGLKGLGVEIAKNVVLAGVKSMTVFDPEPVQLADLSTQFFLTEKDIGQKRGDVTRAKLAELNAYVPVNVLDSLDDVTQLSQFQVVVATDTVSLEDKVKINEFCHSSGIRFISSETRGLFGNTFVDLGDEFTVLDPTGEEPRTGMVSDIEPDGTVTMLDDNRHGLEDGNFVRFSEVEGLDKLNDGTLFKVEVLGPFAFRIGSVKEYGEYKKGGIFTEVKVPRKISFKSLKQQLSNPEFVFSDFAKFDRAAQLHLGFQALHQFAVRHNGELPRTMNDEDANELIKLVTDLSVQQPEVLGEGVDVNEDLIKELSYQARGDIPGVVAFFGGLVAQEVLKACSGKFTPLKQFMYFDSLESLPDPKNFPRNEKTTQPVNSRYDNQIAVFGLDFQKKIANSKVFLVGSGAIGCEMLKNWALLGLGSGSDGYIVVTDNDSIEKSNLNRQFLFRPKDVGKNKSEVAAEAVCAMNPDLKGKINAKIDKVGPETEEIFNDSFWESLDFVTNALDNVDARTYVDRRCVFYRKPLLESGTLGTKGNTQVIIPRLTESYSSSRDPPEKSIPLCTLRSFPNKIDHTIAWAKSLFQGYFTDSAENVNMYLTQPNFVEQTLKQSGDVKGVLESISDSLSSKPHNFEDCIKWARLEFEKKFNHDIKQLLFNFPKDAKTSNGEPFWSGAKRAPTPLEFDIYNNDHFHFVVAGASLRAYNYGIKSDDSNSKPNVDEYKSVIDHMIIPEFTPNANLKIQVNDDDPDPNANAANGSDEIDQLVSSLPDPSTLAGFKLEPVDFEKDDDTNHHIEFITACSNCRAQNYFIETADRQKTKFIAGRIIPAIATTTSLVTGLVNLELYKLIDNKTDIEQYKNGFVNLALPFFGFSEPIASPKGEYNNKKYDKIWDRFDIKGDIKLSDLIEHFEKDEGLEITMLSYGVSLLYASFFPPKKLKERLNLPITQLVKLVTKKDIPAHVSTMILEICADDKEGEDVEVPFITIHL

Ubc4 K4S (from UniProt P46595 1-147) (enzyme)
E1-E2 thioester transfer assay: Ubc4 K4S (fold loss of activity) [1]: 2

B1: Ubc15 K12A (enzyme)
chain: MPSSASEQLLRAQLKEIQKNPPQGFSVGLVDDKSIFEWEVMIIGPEDTLYEGGFFHATLSFPQDYPLMPPKMKFTTEIWHPNVHPNGEVCISILHPPGDDKYGYEDAGERWLPVHSPETILISVISMLSSPNDESPANIDAAKEFRENPQEFKKRVRRLVRRSIEMI
E1-E2 thioester transfer assay (50 nM E1, 60 s): Ubc15 K12A (fold loss of activity) [1]: 5

B2: S. cerevisiae Cdc34^Δdist (enzyme, UniProt P14682 1-195, looked up)
chain: MSSRKSTASSLLLRQYRELTDPKKAIPSFHIELEDDSNIFTWNIGVMVLNEDSIYHGGFFKAQMRFPEDFPFSPPQFRFTPAIYHPNVYRDGRLCISILHQSGDPMTDEPDAETWSPVQTVESVLISIVSLLEDPNINSPANVDAAVDYRKNPEQYKQRVKMEVERSKQDIPKGFIMPTSESAYISQSKLDEPES
modifications: in the crystal with Uba1: disulfide bond between the Uba1 and Cdc34 catalytic cysteines (cross-link)
notes: Cdc34, E2 ubiquitin-conjugating enzyme, S. cerevisiae; construct lacking CTD^dist (residues 196-295), made by a stop codon in Cdc34^FL; residues 3-102 and 112-181 built in the complex; Used here also as the wild-type Cdc34 of the thioester transfer assays with Uba1 mutants; also called ScCdc34^Δdist; source: E. coli BL21 (DE3) Codon Plus, purified
binding result [2]: binds
